2 molecules from US20250304690A1 (HANGZHOU VIROMAB BIOTECH, published 2025) can be followed below.

The target in assay [1] is TT3 labeling polypeptide on cells. In words: flow cytometry on HCT116-TT3 cells. A general note: A flow cytometer gives signals particle by particle.
Assay [2] concerns the target T1, CD3 on Jurkat cells and on human T cells (human, UniProt P07766 23-207).
T1 construct: whole, on cells; also called CD3 end; CD3 antigen
Nature of the assay: flow cytometry on Jurkat cells.
Experimental: Jurkat cells were plated, washed with a FACS buffer, and centrifuged at 1200 rpm for 3-5 min. Then diluted antibodies with different concentrations were added at 100 L/well. The cells were incubated at 4° C. for 0.5 h, centrifuged at 1200 rpm for 3-5 min, and washed with a FACS buffer. Then a diluted goat anti-human IgG (FITC, Abcam/ab97224) antibody was added. The cells were incubated at 4° C. for 0.5 h, centrifuged at 1200 rpm for 3-5 min, washed with a FACS buffer, and resuspended in 50 μL of a FACs buffer, and assays were performed using a flow cytometer.

T1 sequence (P07766 23-207): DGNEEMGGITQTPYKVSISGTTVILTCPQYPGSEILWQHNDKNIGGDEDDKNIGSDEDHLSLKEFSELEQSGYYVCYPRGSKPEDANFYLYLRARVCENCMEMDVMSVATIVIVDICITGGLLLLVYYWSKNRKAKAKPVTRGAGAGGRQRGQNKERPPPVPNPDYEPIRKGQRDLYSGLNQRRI
TT3 labeling polypeptide on cells, sequence (P01732 other isoform, or with tags, fused parts or gaps limits assumed): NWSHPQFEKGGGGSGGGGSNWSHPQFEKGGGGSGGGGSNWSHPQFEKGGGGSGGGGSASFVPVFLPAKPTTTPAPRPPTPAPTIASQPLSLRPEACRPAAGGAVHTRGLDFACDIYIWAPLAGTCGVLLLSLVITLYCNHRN

B1: BK-D-11 (bispecific antibody, human IgG1, kappa)
heavy: QVQLVQSGAEVKKPGASVKVSCKASGYTFTNYYMKWVKQAPGQRLEWMGDLNPNNGDTFYNQKFKGRVTITVDKSASTAYMELSSLRSEDTAVYYCARTGRYEENAMDYWGQGTLVTVSSASTKGPSVFPLAPSSKSTSGGTAALGCLVKDYFPEPVTVSWNSGALTSGVHTFPAVLQSSGLYSLSSVVTVPSSSLGTQTYICNVNHKPSNTKVDKRVEPKSCDKTHTCPPCPAPEFEGGPSVFLFPPKPKDTLMISRTPEVTCVVVDVSHEDPEVKFNWYVDGVEVHNAKTKPREEQYNSTYRVVSVLTVLHQDWLNGKEYKCKVSNKALPASIEKTISKAKGQPREPQVYTLPPSREEMTKNQVSLTCLVKGFYPSDIAVEWESNGQPENNYKTTPPVLDSDGSFFLYSKLTVDKSRWQQGNVFSCSVMHEALHNHYTQKSLSLSPGKGGGGSGGGGSGGGGSQAVVTQEPSLTVSPGGTVTLTCRSSTGAVTTSNYANWVQQKPGQAPRGLIGGTNKRAPWTPARFSGSLLGGKAALTLSGAQPEDEAEYYCALWYSNLWVFGGGTKLTVLGGGGSGGGGSGGGGSEVQLVESGGGLVQPGGSLRLSCAASGFTFNTYAMNWVRQAPGKGLEWVARIRSKYNNYATYYADSVKDRFTISRDDSKNSLYLQMNSLKTEDTAVYYCVRHGNFGNSYVSWFAYWGQGTLVTVSA
light: DIVLTQSPASLAVSPGQRATITCRASESVDSYGKSFMHWYQQKPGQPPKLLIYRASNLESGVPARFSGSGSRTDFTLTINPVEANDTANYYCQQNNEDPWTFGQGTKLEIKRTVAAPSVFIFPPSDEQLKSGTASVVCLLNNFYPREAKVQWKVDNALQSGNSQESVTEQDSKDSTYSLSSTLTLSKADYEKHKVYACEVTHQGLSSPVTKSFNRGEC
As for B1, the figures for the EC50 in assay [1] and in assay [2] were 0.336 nM and 169 nM, respectively.

B2: BK-D-12 (bispecific antibody, human IgG1, kappa)
heavy: QVQLVQSGAEVKKPGASVKVSCKASGYTFTNYYMKWVKQAPGQRLEWMGDLNPNNGDTFYNQKFKGRVTITVDKSASTAYMELSSLRSEDTAVYYCARTGRYEENAMDYWGQGTLVTVSSASTKGPSVFPLAPSSKSTSGGTAALGCLVKDYFPEPVTVSWNSGALTSGVHTFPAVLQSSGLYSLSSVVTVPSSSLGTQTYICNVNHKPSNTKVDKRVEPKSCDKTHTCPPCPAPEFEGGPSVFLFPPKPKDTLMISRTPEVTCVVVDVSHEDPEVKFNWYVDGVEVHNAKTKPREEQYNSTYRVVSVLTVLHQDWLNGKEYKCKVSNKALPASIEKTISKAKGQPREPQVYTLPPSREEMTKNQVSLTCLVKGFYPSDIAVEWESNGQPENNYKTTPPVLDSDGSFFLYSKLTVDKSRWQQGNVFSCSVMHEALHNHYTQKSLSLSPGKGGGGSGGGGSGGGGSQAVVTQEPSLTVSPGGTVTLTCRSSTGAVTTSNYANWVQQKPGQAPRGLIGGTNKRAPWTPARFSGSLLGGKAALTLSGAQPEDEAEYYCALWYSNLWVFGGGTKLTVLGGGGSGGGGSGGGGSEVQLVESGGGLVQPGGSLRLSCAASGFTFNTYAMNWVRQAPGKGLEWVARIRSKYNNYATYYADSVKDRFTISRDDSKNILYLQMNSLKTEDTAMYYCVRHGNFGNSYVSWFAYWGQGTLVTVSA
light: DLVMTQSPASLAVSPGQRATITCRASESVDSYGKSFMHWYQLKPGQPPKLLIYRASNLESGVPARFSGSGSRTDFTLTINPVEANDTANYYCQQNNEDPWTFGQGTKLEIKRTVAAPSVFIFPPSDEQLKSGTASVVCLLNNFYPREAKVQWKVDNALQSGNSQESVTEQDSKDSTYSLSSTLTLSKADYEKHKVYACEVTHQGLSSPVTKSFNRGEC
For the molecule B2, the EC50 is 0.523 nM in assay [1] and 80.6 nM in assay [2].

Usually EC50 stands for the midpoint of the concentration-response curve. A lower EC50 goes with higher potency in that assay.
